# Assay results taken from article PMC9482650, “Quantitative fragmentomics allow affinity mapping of interactomes” (Nature Communications, 2022).
# T1: SIPA1L2, Q9P2F8
# T1 sequence (Q9P2F8 945-1036, limits assumed, looked up): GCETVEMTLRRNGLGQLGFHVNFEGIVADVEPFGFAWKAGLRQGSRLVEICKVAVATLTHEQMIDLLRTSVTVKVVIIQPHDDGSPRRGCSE
# T2: MPP2, Q14168
# T2 sequence (Q14168 180-250, limits assumed, looked up): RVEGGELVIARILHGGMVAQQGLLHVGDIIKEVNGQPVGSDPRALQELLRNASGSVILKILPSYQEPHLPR
# T3: ARHGAP21, Q5T5U3
# T3 sequence (Q5T5U3 45-169, limits assumed, looked up): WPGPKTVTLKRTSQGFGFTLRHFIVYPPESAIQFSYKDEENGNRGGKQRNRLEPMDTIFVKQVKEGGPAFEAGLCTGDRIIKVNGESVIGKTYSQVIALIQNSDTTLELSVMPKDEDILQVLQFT
# T4: SNTG2, Q9NY99
# T4 sequence (Q9NY99 68-166, limits assumed, looked up): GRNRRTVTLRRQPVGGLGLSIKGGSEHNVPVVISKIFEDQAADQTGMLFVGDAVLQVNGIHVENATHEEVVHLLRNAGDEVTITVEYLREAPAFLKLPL
# T5: PTPN13_1, Q12923
# T5 sequence (Q12923 1088-1188, limits assumed, looked up): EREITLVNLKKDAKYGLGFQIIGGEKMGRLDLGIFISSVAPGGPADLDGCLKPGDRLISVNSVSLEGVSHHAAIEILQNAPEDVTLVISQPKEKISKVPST
# T6: SHANK1, Q9Y566
# T6 sequence (Q9Y566 658-767, limits assumed, looked up): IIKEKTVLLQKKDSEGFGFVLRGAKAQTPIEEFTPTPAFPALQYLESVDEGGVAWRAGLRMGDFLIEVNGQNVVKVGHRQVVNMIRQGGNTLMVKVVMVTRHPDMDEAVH
# T7: SYNJ2BP, P57105
# T7 sequence (P57105 8-110, limits assumed, looked up): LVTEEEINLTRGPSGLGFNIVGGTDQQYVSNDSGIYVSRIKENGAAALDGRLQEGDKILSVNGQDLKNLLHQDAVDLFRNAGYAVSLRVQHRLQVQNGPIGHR
# T8: LRRC7, Q96NW7
# T8 sequence (Q96NW7 1440-1537, limits assumed, looked up): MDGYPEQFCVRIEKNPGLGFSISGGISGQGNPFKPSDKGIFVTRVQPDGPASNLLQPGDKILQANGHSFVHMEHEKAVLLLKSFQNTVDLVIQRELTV
# T9: DLG3_3, Q92796
# T9 sequence (Q92796 374-475, limits assumed, looked up): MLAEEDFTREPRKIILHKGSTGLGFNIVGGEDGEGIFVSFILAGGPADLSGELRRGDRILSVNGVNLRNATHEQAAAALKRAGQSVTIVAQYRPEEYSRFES
# T10: DLG3_2, Q92796
# T10 sequence (Q92796 221-321, limits assumed, looked up): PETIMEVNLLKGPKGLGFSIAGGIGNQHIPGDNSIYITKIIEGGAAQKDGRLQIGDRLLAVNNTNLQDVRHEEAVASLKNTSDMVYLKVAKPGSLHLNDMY
# T11: TJP3_3, O95049
# T11 sequence (O95049 375-456, limits assumed, looked up): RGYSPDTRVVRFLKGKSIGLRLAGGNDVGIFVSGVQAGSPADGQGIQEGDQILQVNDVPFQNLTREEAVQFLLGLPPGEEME
# T12: DFNB31_1, Q9P202
# T12 sequence (Q9P202 135-233, limits assumed, looked up): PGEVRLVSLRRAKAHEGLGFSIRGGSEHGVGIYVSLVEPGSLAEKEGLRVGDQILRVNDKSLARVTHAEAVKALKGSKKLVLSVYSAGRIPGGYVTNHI
# B1: SLC16A3, O15427 (peptide)
# chain: EVVHTPETSV
# B2: PDZRN4, Q6ZMN7 (peptide)
# chain: HNAFLSVTTV
# B3: TRIM50, Q86XT4 (peptide)
# chain: PLSPEQPTKL
# Legend:
# Assay in all cases: holdup assay
# Parameters in all cases: key: below the threshold = too weak to quantify, mostly under pKd 3.1 to 4
# Inadl_6, Q8NI35 = biological target: Inadl_6, Q8NI35
# SIPA1L2, Q9P2F8 = biological target: T1, SIPA1L2, Q9P2F8
# LNX1_2, Q8TBB1 = biological target: LNX1_2, Q8TBB1
# FRMPD3, Q5JV73 = biological target: FRMPD3, Q5JV73
# SCRIB_3, Q14160 = biological target: SCRIB_3, Q14160
# MPP2, Q14168 = biological target: T2, MPP2, Q14168
# ARHGAP21, Q5T5U3 = biological target: T3, ARHGAP21, Q5T5U3
# SNTG2, Q9NY99 = biological target: T4, SNTG2, Q9NY99
# AHNAK1, Q09666 = biological target: AHNAK1, Q09666
# GRASP, Q7Z6J2 = biological target: GRASP, Q7Z6J2
# PTPN13_1, Q12923 = biological target: T5, PTPN13_1, Q12923
# SHANK1, Q9Y566 = biological target: T6, SHANK1, Q9Y566
# SCRIB_2, Q14160 = biological target: SCRIB_2, Q14160
# SYNJ2BP, P57105 = biological target: T7, SYNJ2BP, P57105
# LRRC7, Q96NW7 = biological target: T8, LRRC7, Q96NW7
# SCRIB_1, Q14160 = biological target: SCRIB_1, Q14160
# PTPN3, P26045 = biological target: PTPN3, P26045
# DLG3_3, Q92796 = biological target: T9, DLG3_3, Q92796
# DLG3_2, Q92796 = biological target: T10, DLG3_2, Q92796
# NHERF2_2, Q15599 = biological target: NHERF2_2, Q15599
# DLG2_2, Q15700 = biological target: DLG2_2, Q15700
# NHERF4_2, Q86UT5 = biological target: NHERF4_2, Q86UT5
# TJP3_3, O95049 = biological target: T11, TJP3_3, O95049
# DLG4_2, P78352 = biological target: DLG4_2, P78352
# DFNB31_1, Q9P202 = biological target: T12, DFNB31_1, Q9P202
# PDZRN4_1, Q6ZMN7 = biological target: PDZRN4_1, Q6ZMN7
# [1] = plain residues with an end cap or a label only (N-terminal biotin on a linker: ttds)
# [2] = plain residues with an end cap or a label only (N-terminal biotin on a linker: ahx)
# [3] = plain residues with an end cap or a label only (N-terminal biotin on a linker: ado-ado)
# Sequence of NHERF2_2, Q15599 (Q15599 142-238): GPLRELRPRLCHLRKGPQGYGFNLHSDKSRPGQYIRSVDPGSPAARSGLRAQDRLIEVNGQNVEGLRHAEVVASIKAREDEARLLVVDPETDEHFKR
# Sequence of FRMPD3, Q5JV73 (Q5JV73 12-100): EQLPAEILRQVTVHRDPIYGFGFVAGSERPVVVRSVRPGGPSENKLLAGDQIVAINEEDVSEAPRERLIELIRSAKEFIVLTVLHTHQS
# Sequence of DLG4_2, P78352 (P78352 155-259): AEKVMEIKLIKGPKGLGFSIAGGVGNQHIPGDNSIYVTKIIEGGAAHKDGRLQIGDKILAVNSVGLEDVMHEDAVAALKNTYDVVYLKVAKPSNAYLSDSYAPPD
# Sequence of PTPN3, P26045 (P26045 505-587): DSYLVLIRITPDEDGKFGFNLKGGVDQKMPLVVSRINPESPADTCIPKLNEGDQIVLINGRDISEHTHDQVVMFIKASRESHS
# Sequence of NHERF4_2, Q86UT5 (Q86UT5 220-308): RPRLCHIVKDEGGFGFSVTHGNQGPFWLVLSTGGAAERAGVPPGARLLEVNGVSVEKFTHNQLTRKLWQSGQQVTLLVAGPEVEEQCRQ
# Sequence of PDZRN4_1, Q6ZMN7 (Q6ZMN7 213-318): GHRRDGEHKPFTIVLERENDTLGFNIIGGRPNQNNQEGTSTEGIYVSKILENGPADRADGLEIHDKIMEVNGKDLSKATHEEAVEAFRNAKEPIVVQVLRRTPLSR
# Sequence of Inadl_6, Q8NI35 (Q8NI35 1058-1167): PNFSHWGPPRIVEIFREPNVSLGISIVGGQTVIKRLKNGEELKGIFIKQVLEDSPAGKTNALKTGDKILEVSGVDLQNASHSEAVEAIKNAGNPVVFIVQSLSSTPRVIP
# Sequence of SCRIB_1, Q14160 (Q14160 718-814): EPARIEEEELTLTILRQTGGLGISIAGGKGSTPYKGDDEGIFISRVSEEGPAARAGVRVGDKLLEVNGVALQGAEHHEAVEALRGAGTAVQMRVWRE
# Sequence of SCRIB_3, Q14160 (Q14160 999-1103): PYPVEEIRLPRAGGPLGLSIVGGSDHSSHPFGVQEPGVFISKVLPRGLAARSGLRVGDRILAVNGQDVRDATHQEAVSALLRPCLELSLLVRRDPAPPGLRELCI
# Sequence of SCRIB_2, Q14160 (Q14160 857-960): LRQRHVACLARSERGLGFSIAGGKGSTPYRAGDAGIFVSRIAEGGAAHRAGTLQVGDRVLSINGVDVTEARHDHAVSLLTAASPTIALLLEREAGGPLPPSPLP
# Sequence of GRASP, Q7Z6J2 (Q7Z6J2 96-193): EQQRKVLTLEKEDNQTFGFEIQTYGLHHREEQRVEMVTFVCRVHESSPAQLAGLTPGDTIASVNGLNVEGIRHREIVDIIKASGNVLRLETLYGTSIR
# Sequence of AHNAK1, Q09666 (Q09666 4-100): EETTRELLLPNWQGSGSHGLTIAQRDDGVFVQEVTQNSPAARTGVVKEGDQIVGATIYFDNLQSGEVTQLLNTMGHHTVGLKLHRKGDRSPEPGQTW
# Sequence of LNX1_2, Q8TBB1 (Q8TBB1 371-470): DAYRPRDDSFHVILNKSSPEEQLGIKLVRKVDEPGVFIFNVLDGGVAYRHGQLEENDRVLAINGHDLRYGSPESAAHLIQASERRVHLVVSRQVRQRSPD
# Sequence of DLG2_2, Q15700 (Q15700 189-283): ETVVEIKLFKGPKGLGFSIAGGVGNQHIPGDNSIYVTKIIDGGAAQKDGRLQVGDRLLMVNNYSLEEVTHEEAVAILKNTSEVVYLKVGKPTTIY
binder,measurement,setting,value
B1,pKd,"Inadl_6, Q8NI35; [1]",below the threshold
same,pKd,"SIPA1L2, Q9P2F8; [1]",below the threshold
same,pKd,"LNX1_2, Q8TBB1; [1]",below the threshold
same,pKd,"FRMPD3, Q5JV73; [1]",below the threshold
same,pKd,"SCRIB_3, Q14160; [1]",4.58
same,pKd,"MPP2, Q14168; [1]",below the threshold
same,pKd,"ARHGAP21, Q5T5U3; [1]",below the threshold
same,pKd,"SNTG2, Q9NY99; [1]",4.55
same,pKd,"AHNAK1, Q09666; [1]",below the threshold
same,pKd,"GRASP, Q7Z6J2; [1]",below the threshold
same,pKd,"PTPN13_1, Q12923; [1]",below the threshold
same,pKd,"SHANK1, Q9Y566; [1]",below the threshold
same,pKd,"SCRIB_2, Q14160; [1]",4.48
same,pKd,"SYNJ2BP, P57105; [1]",4.78
same,pKd,"LRRC7, Q96NW7; [1]",below the threshold
same,pKd,"SCRIB_1, Q14160; [1]",5.08
same,pKd,"PTPN3, P26045; [1]",4.86
same,pKd,"DLG3_3, Q92796; [1]",4.28
same,pKd,"DLG3_2, Q92796; [1]",4.08
same,pKd,"NHERF2_2, Q15599; [1]",below the threshold
same,pKd,"DLG2_2, Q15700; [1]",3.98
same,pKd,"NHERF4_2, Q86UT5; [1]",below the threshold
same,pKd,"TJP3_3, O95049; [1]",below the threshold
same,pKd,"DLG4_2, P78352; [1]",4.2
same,pKd,"DFNB31_1, Q9P202; [1]",3.86
same,pKd,"PDZRN4_1, Q6ZMN7; [1]",4.5
B2,pKd,"Inadl_6, Q8NI35; [2]",below the threshold
same,pKd,"SIPA1L2, Q9P2F8; [2]",below the threshold
same,pKd,"LNX1_2, Q8TBB1; [2]",3.65
same,pKd,"FRMPD3, Q5JV73; [2]",below the threshold
same,pKd,"SCRIB_3, Q14160; [2]",below the threshold
same,pKd,"MPP2, Q14168; [2]",below the threshold
same,pKd,"ARHGAP21, Q5T5U3; [2]",3.5
same,pKd,"SNTG2, Q9NY99; [2]",3.6
same,pKd,"AHNAK1, Q09666; [2]",3.7
same,pKd,"GRASP, Q7Z6J2; [2]",3.57
same,pKd,"PTPN13_1, Q12923; [2]",below the threshold
same,pKd,"SHANK1, Q9Y566; [2]",below the threshold
same,pKd,"SCRIB_2, Q14160; [2]",3.71
same,pKd,"SYNJ2BP, P57105; [2]",below the threshold
same,pKd,"LRRC7, Q96NW7; [2]",3.5
same,pKd,"SCRIB_1, Q14160; [2]",below the threshold
same,pKd,"PTPN3, P26045; [2]",below the threshold
same,pKd,"DLG3_3, Q92796; [2]",below the threshold
same,pKd,"DLG3_2, Q92796; [2]",3.61
same,pKd,"NHERF2_2, Q15599; [2]",below the threshold
same,pKd,"DLG2_2, Q15700; [2]",below the threshold
same,pKd,"NHERF4_2, Q86UT5; [2]",below the threshold
same,pKd,"TJP3_3, O95049; [2]",below the threshold
same,pKd,"DLG4_2, P78352; [2]",3.51
same,pKd,"DFNB31_1, Q9P202; [2]",below the threshold
same,pKd,"PDZRN4_1, Q6ZMN7; [2]",3.5
B3,pKd,"Inadl_6, Q8NI35; [3]",below the threshold
same,pKd,"SIPA1L2, Q9P2F8; [3]",below the threshold
same,pKd,"LNX1_2, Q8TBB1; [3]",below the threshold
same,pKd,"FRMPD3, Q5JV73; [3]",below the threshold
same,pKd,"SCRIB_3, Q14160; [3]",below the threshold
same,pKd,"MPP2, Q14168; [3]",below the threshold
same,pKd,"ARHGAP21, Q5T5U3; [3]",below the threshold
same,pKd,"SNTG2, Q9NY99; [3]",below the threshold
same,pKd,"AHNAK1, Q09666; [3]",below the threshold
same,pKd,"GRASP, Q7Z6J2; [3]",4
same,pKd,"PTPN13_1, Q12923; [3]",below the threshold
same,pKd,"SHANK1, Q9Y566; [3]",below the threshold
same,pKd,"SCRIB_2, Q14160; [3]",below the threshold
same,pKd,"SYNJ2BP, P57105; [3]",below the threshold
same,pKd,"LRRC7, Q96NW7; [3]",below the threshold
same,pKd,"SCRIB_1, Q14160; [3]",below the threshold
same,pKd,"PTPN3, P26045; [3]",below the threshold
same,pKd,"DLG3_3, Q92796; [3]",below the threshold
same,pKd,"DLG3_2, Q92796; [3]",below the threshold
same,pKd,"NHERF2_2, Q15599; [3]",3.86
same,pKd,"DLG2_2, Q15700; [3]",below the threshold
same,pKd,"NHERF4_2, Q86UT5; [3]",below the threshold
same,pKd,"TJP3_3, O95049; [3]",below the threshold
same,pKd,"DLG4_2, P78352; [3]",below the threshold
same,pKd,"DFNB31_1, Q9P202; [3]",below the threshold
same,pKd,"PDZRN4_1, Q6ZMN7; [3]",below the threshold
